Assay [1] addresses mature plasmepsin 4 of Plasmodium berghei (PbPM4), auto-matured from semi-proPbPM4 (Plasmodium berghei ANKA). Description: enzyme inhibition kinetics (Ki of competitive inhibition); initial cleavage velocities of a chromogenic peptide substrate at varied inhibitor concentration, spectrophotometric; proPbPM4 pre-incubated in 100 mM sodium citrate pH 5.0, 37°C, 5 min; tight-binding or non-tight-binding competitive fit.

The target in assay [2] is human cathepsin D (human) (UniProt P07339). In words: enzyme inhibition kinetics (Ki of competitive inhibition); initial cleavage velocities of a chromogenic peptide substrate at varied inhibitor concentration; hcatD pre-incubated in 200 mM sodium formate pH 3.7, 37°C, 5 min.
For assay [3], the target named is plasmepsin 4 from Plasmodium malariae (Plasmodium malariae). In words: enzyme inhibition kinetics (Ki of competitive inhibition); initial cleavage velocities of a chromogenic peptide substrate at varied inhibitor concentration; plasmepsins pre-incubated in 100 mM sodium formate pH 4.5, 37°C, 5 min to convert zymogen to mature enzyme.
The target of assay [4] is plasmepsin 4 from Plasmodium ovalae (P. ovalae). The assay is described as above.
Assay [5] concerns the target plasmepsin 4 from Plasmodium vivax (Plasmodium vivax). The description is as above.

Where no end group is shown, it is not given here.

What is called Ki is a dissociation constant, usually derived from enzyme kinetics or from competition with a known ligand. Lower therefore signals higher affinity.

B1: compound 5 (KPLEFΨFRV), peptidomimetic inhibitor designed for PvPM4 (peptide)
peptide: KPLEFFRV
modifications: not fully specified (residue 5); printed as KPLEFΨFRV; also: Ψ pseudopeptide bond between F5 and F6
B1 yielded an inhibitory constant (Ki) in assay [1] of 1.4 nM.

B2: compound 2 (KPFSLΨLQF), peptidomimetic inhibitor designed for PfPM1 (peptide)
peptide: KPFSLLQF
modifications: not fully specified (residue 5); printed as KPFSLΨLQF; also: Ψ pseudopeptide bond between L5 and L6
In assay [1], B2 returned a Ki of 379 nM.

B3: compound 1 (KPYEFΨRQF), peptidomimetic inhibitor designed for PbPM4 (peptide)
peptide: KPYEFRQF
modifications: not fully specified (residue 5); printed as KPYEFΨRQF; also: Ψ pseudo-peptide bond between F5 and R6
As for B3, the inhibitory constant (Ki) is 41000 nM in assay [2]; 445 nM in assay [3]; 1900 nM in assay [4]; 426 nM in assay [5]; 3900 nM in assay [1].

B4: compound 6 (KPLEFΨYRV), peptidomimetic inhibitor designed for PoPM4 (peptide)
peptide: KPLEFYRV
modifications: not fully specified (residue 5); printed as KPLEFΨYRV; also: Ψ pseudopeptide bond between F5 and Y6
In turn, B4 yielded an inhibition constant (Ki) in assay [1] of 0.12 nM.

B5: compound 4 (KPVEFΨRQT), peptidomimetic inhibitor designed for PfPM4 (peptide)
peptide: KPVEFRQT
modifications: not fully specified (residue 5); printed as KPVEFΨRQT; also: Ψ pseudopeptide bond between F5 and R6
The molecule B5 showed a Ki in assay [1] of 502 nM.

B6: compound 7 (KPFELΨAWT), peptidomimetic inhibitor designed for PmPM4 (peptide)
peptide: KPFELAWT
modifications: not fully specified (residue 5); printed as KPFELΨAWT; also: Ψ pseudopeptide bond between L5 and A6
B6: the Ki in assay [1] came to 8100 nM.
